Experimental data: IntAct's records for PubMed 16946707

B1: Dynamin-1 (Homo sapiens), Q05193 (parent)
chain: MGNRGMEDLIPLVNRLQDAFSAIGQNADLDLPQIAVVGGQSAGKSSVLENFVGRDFLPRGSGIVTRRPLVLQLVNATTEYAEFLHCKGKKFTDFEEVRLEIEAETDRVTGTNKGISPVPINLRVYSPHVLNLTLVDLPGMTKVPVGDQPPDIEFQIRDMLMQFVTKENCLILAVSPANSDLANSDALKVAKEVDPQGQRTIGVITKLDLMDEGTDARDVLENKLLPLRRGYIGVVNRSQKDIDGKKDITAALAAERKFFLSHPSYRHLADRMGTPYLQKVLNQQLTNHIRDTLPGLRNKLQSQLLSIEKEVEEYKNFRPDDPARKTKALLQMVQQFAVDFEKRIEGSGDQIDTYELSGGARINRIFHERFPFELVKMEFDEKELRREISYAIKNIHGIRTGLFTPDMAFETIVKKQVKKIREPCLKCVDMVISELISTVRQCTKKLQQYPRLREEMERIVTTHIREREGRTKEQVMLLIDIELAYMNTNHEDFIGFANAQQRSNQMNKKKTSGNQDEILVIRKGWLTINNIGIMKGGSKEYWFVLTAENLSWYKDDEEKEKKYMLSVDNLKLRDVEKGFMSSKHIFALFNTEQRNVYKDYRQLELACETQEEVDSWKASFLRAGVYPERVGDKEKASETEENGSDSFMHSMDPQLERQVETIRNLVDSYMAIVNKTVRDLMPKTIMHLMINNTKEFIFSELLANLYSCGDQNTLMEESAEQAQRRDEMLRMYHALKEALSIIGDINTTTVSTPMPPPVDDSWLQVQSVPAGRRSPTSSPTPQRRAPAVPPARPGSRGPAPGPPPAGSALGGAPPVPSRPGASPDPFGPPPQVPSRPNRAPPGVPSRSGQASPSRPESPRPPFDL
partner: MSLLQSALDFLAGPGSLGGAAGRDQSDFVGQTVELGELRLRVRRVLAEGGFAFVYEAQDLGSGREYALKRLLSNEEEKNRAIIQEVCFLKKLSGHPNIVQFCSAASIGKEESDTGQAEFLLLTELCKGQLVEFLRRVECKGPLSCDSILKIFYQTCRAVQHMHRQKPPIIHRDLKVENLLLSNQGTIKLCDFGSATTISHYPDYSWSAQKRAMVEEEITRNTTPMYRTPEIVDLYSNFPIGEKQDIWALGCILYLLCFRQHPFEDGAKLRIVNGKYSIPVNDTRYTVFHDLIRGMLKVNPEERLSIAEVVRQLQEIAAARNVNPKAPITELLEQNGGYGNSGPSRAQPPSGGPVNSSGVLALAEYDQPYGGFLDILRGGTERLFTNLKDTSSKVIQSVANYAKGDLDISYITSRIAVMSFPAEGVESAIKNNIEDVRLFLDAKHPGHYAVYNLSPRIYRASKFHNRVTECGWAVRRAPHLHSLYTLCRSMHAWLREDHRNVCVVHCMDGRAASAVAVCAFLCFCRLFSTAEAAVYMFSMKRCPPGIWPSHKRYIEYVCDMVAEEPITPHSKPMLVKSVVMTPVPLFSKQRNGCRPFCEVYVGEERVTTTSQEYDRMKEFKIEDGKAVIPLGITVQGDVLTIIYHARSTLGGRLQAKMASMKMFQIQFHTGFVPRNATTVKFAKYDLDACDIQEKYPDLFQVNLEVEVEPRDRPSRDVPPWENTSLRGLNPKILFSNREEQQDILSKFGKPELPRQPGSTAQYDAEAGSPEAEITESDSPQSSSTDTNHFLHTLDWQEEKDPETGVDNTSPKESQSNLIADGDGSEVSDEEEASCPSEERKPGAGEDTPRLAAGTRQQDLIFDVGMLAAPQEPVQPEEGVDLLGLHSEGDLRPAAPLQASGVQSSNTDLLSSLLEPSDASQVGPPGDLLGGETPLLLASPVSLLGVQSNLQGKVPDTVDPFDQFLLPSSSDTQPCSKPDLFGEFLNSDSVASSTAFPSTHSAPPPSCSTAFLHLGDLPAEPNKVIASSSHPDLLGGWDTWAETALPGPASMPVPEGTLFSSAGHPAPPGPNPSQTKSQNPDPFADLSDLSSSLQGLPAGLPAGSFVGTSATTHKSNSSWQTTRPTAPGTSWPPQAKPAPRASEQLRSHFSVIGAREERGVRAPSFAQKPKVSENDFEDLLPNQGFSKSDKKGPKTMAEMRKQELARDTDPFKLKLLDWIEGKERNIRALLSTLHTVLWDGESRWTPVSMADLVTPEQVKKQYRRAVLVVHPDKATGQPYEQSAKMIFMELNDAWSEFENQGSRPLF

Variants of: B1
Settings: with gak_rat Gak

effect of a mutation on the interaction | Variant
disrupting interaction | I690K
increasing interaction | K694A
